Broadly, the Kd is the equilibrium constant for the complex coming apart.

From article PMC6713507 come the findings set out here.

The test concerns the target catalytic α subunit of the cAMP-dependent protein kinase A, Cushing's syndrome mutant L205R (PKA-C^L205R) (human). As to the kind of experiment: ITC. (Isothermal titration calorimetry measures the heat released or taken up as one component is titrated into another.)

Turning to “VPS36-derived peptide (vacuolar protein-sorting–associated protein 36, residues 115 to 130)”, the equilibrium dissociation constant (Kd) came out at 3.5 µM.
